Test results: publication PMC9998874, “Deacetylation induced nuclear condensation of HP1γ promotes multiple myeloma drug resistance” (Nature Communications, 2023)

T1: GST-MDC1-mC-IDR1 (UniProt Q14676 143-339)
T1 construct: MDC1 intrinsically disordered region 1 (IDR1), residues 143-339; In the droplet and turbidity assays the protein is called mCherry-MDC1-IDR1; also called GST-tagged-mCherry-MDC1-IDR1; MDC1-IDR1; source: purified
T1 sequence (looked up): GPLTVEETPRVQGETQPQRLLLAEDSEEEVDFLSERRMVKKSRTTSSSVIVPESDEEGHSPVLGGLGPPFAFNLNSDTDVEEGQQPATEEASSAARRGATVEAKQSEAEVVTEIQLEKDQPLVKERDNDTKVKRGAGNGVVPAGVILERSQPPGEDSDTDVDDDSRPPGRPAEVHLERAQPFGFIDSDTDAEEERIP

T2: GST-MDC1-mC-IDR2 (UniProt Q14676 354-539)
T2 construct: MDC1 intrinsically disordered region 2 (IDR2), residues 354-539; In the droplet and turbidity assays the protein is called mCherry-MDC1-IDR2; also called GST-tagged-mCherry-MDC1-IDR2; MDC1-IDR2; source: purified
T2 sequence (looked up): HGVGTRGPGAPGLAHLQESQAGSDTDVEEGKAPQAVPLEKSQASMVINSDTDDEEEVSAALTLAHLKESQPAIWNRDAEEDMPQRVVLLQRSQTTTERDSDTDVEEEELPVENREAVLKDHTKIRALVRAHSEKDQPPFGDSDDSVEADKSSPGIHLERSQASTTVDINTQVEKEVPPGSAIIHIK

B1: purified HP1γ-GFP (natural protein)
chain: not shown
notes: HP1γ (CBX3) fused to GFP; the HP1γ-GFP of the pull-down is probably the full-length one (surmised); also called GFP-HP1γ; source: E. coli BL21, purified (glutathione agarose, released by HRV 3C protease)
B2: GST-fusion HP1γ protein (natural protein)
chain: not shown
notes: HP1γ (CBX3) fused to GST; Probably made in E. coli BL21 as the other GST fusions of the methods (surmised); also called GST-HP1γ; GST-tagged-HP1γ; source: purified GST-fusion protein ('in vitro expression')

Experiments:
Conditions in all cases: both partners purified
GST-MDC1-mC-IDR1 = target: T1, GST-MDC1-mC-IDR1; experiment: pull-down; GST pull-down in vitro: GST-tagged mCherry-MDC1-IDR1 or -IDR2 held, purified HP1γ-GFP
GST-MDC1-mC-IDR2 = target: T2, GST-MDC1-mC-IDR2; experiment: as above
purified HDAC1-flag = target: T3, purified HDAC1-flag (UniProt Q13547 1-482); experiment: pull-down; GST pull-down in vitro: GST-tagged HP1γ held, purified HDAC1-flag as input
T3 construct: histone deacetylase 1 with a flag tag; also called HDAC1-flag fusion protein; flag-HDAC1; source: HEK293T, expressed, purified
T3 sequence (Q13547 whole entry, the tested form may be a part): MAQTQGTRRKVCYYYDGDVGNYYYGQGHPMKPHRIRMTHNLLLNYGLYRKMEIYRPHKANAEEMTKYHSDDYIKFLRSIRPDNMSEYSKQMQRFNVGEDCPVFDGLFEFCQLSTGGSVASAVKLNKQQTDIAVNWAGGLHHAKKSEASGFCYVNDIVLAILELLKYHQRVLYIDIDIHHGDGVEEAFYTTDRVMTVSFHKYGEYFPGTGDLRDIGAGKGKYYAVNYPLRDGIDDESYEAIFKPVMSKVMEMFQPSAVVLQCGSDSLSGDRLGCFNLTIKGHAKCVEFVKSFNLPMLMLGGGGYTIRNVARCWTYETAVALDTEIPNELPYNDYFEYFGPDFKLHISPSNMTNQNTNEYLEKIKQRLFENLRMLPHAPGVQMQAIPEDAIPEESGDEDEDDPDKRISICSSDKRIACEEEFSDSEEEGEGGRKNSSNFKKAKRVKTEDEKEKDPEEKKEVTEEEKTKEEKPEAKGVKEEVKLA

Binder | binding result (GST-MDC1-mC-IDR1) | binding result (GST-MDC1-mC-IDR2) | binding result (purified HDAC1-flag)
B1 | binds | binds | 
B2 |  |  | binds
